Sequences and labels used below:
B1: RAD54B (parent)
chain: YVQEKRDGLKRRQQLEEELLRAKI
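Further: lentivirally expressed fusions sorted by FACS into six bins by GFP to DsRed ratio, PSI derived from sequencing read proportions per bin multiplied by bin number.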

Variants of B1 are the subject of the series. As to the kind of experiment: protein stability index of a GFP-peptide fusion (GPS, HEK-293T) (PSI 1-6); higher = more stable. The settings on record: c terminus: a fixed tail appended.
Turning to YVQEKRHGLKRRQQLEEELLRAKI, the protein stability index was determined as 1.67.

With YVQEKRTGLKRRQQLEEELLRAKI, the protein stability index stood at 3.69.

Consider YVQEKRWGLKRRQQLEEELLRAKI, for which the protein stability index came to 2.14.

For the variant YVQEKRIGLKRRQQLEEELLRAKI, the protein stability index is 2.13.

For the variant YVQEKRKGLKRRQQLEEELLRAKI, the protein stability index is 2.16.

In the case of YVQEKRYGLKRRQQLEEELLRAKI, the protein stability index stood at 1.39.

YVQEKRPGLKRRQQLEEELLRAKI: the protein stability index is 1.88.

Turning to YVQEKREGLKRRQQLEEELLRAKI, the protein stability index came out at 1.96.

For YVQEKRFGLKRRQQLEEELLRAKI, the protein stability index is 1.54.

For YVQEKRQGLKRRQQLEEELLRAKI, the protein stability index came out at 2.21.

On to YVQEKRNGLKRRQQLEEELLRAKI, for which the protein stability index turned out to be 1.81.

YVQEKRCGLKRRQQLEEELLRAKI: the protein stability index turned out to be 3.13.

Turning to YVQEKRVGLKRRQQLEEELLRAKI, the protein stability index turned out to be 1.47.

Consider YVQEKRRGLKRRQQLEEELLRAKI, for which the protein stability index worked out at 2.37.

With YVQEKRAGLKRRQQLEEELLRAKI, the protein stability index turned out to be 1.87.

As to YVQEKRMGLKRRQQLEEELLRAKI, the protein stability index was 1.79.

As for YVQEKRSGLKRRQQLEEELLRAKI, the protein stability index turned out to be 2.37.

Turning to YVQEKRLGLKRRQQLEEELLRAKI, the protein stability index turned out to be 1.46.

Consider YVQEKRGGLKRRQQLEEELLRAKI, for which the protein stability index was 1.88.

Consider YVQEKHDGLKRRQQLEEELLRAKI, for which the protein stability index was determined as 2.1.

In the case of YVQEKPDGLKRRQQLEEELLRAKI, the protein stability index turned out to be 1.94.

For YVQEKQDGLKRRQQLEEELLRAKI, the protein stability index was determined as 2.39.

Regarding YVQEKADGLKRRQQLEEELLRAKI, the protein stability index is 2.26.

Turning to YVQEKTDGLKRRQQLEEELLRAKI, the protein stability index was determined as 2.49.

In the case of YVQEKMDGLKRRQQLEEELLRAKI, the protein stability index worked out at 2.12.

Take YVQEKFDGLKRRQQLEEELLRAKI: the protein stability index stood at 2.14.

As for YVQEKYDGLKRRQQLEEELLRAKI, the protein stability index turned out to be 2.18.

With YVQEKNDGLKRRQQLEEELLRAKI, the protein stability index turned out to be 2.31.

On to YVQEKSDGLKRRQQLEEELLRAKI, for which the protein stability index came out at 1.75.

As for YVQEKKDGLKRRQQLEEELLRAKI, the protein stability index worked out at 1.96.

Take YVQEKEDGLKRRQQLEEELLRAKI: the protein stability index turned out to be 3.26.

Turning to YVQEKLDGLKRRQQLEEELLRAKI, the protein stability index turned out to be 2.46.

As to YVQEKDDGLKRRQQLEEELLRAKI, the protein stability index is 2.87.

Turning to YVQEKVDGLKRRQQLEEELLRAKI, the protein stability index stood at 2.23.

Turning to YVQEKIDGLKRRQQLEEELLRAKI, the protein stability index was 2.66.

For YVQEKWDGLKRRQQLEEELLRAKI, the protein stability index came to 2.07.

With YVQEKCDGLKRRQQLEEELLRAKI, the protein stability index was 2.32.

As to YVQEKGDGLKRRQQLEEELLRAKI, the protein stability index stood at 2.39.

As to YVQWKRDGLKRRQQLEEELLRAKI, the protein stability index amounted to 1.62.

In the case of YVQYKRDGLKRRQQLEEELLRAKI, the protein stability index was 2.28.

Consider YVQPKRDGLKRRQQLEEELLRAKI, for which the protein stability index amounted to 2.23.

Take YVQTKRDGLKRRQQLEEELLRAKI: the protein stability index was found to be 1.49.

As for YVQSKRDGLKRRQQLEEELLRAKI, the protein stability index worked out at 2.9.

For YVQRKRDGLKRRQQLEEELLRAKI, the protein stability index came to 2.31.

On to YVQVKRDGLKRRQQLEEELLRAKI, for which the protein stability index came to 1.6.

Turning to YVQQKRDGLKRRQQLEEELLRAKI, the protein stability index worked out at 1.68.

Consider YVQEKRDFLKRRQQLEEELLRAKI, for which the protein stability index is 2.27.

For YVQEKRDQLKRRQQLEEELLRAKI, the protein stability index was determined as 2.01.

Regarding YVQEKRDDLKRRQQLEEELLRAKI, the protein stability index was 2.27.

For YVQEKRDYLKRRQQLEEELLRAKI, the protein stability index was found to be 2.12.

In the case of YVQEKRDKLKRRQQLEEELLRAKI, the protein stability index came out at 2.33.

As to YVQEKRDSLKRRQQLEEELLRAKI, the protein stability index was found to be 1.99.

Consider YVQEKRDHLKRRQQLEEELLRAKI, for which the protein stability index came to 1.92.

For YVQEKRDPLKRRQQLEEELLRAKI, the protein stability index came out at 2.12.

As to YVQEKRDCLKRRQQLEEELLRAKI, the protein stability index came to 1.98.

As for YVQEKRDNLKRRQQLEEELLRAKI, the protein stability index amounted to 1.49.

With YVQEKRDWLKRRQQLEEELLRAKI, the protein stability index amounted to 3.6.

YVQEKRDRLKRRQQLEEELLRAKI: the protein stability index is 2.28.

As to YVQEKRDALKRRQQLEEELLRAKI, the protein stability index is 1.82.

YVQEKRDELKRRQQLEEELLRAKI: the protein stability index is 2.59.

For YVQEKRDVLKRRQQLEEELLRAKI, the protein stability index worked out at 2.11.

Take YVQEKRDMLKRRQQLEEELLRAKI: the protein stability index was determined as 2.29.

Regarding YVQEKRDTLKRRQQLEEELLRAKI, the protein stability index came out at 1.74.

On to YVQEKRDLLKRRQQLEEELLRAKI, for which the protein stability index came to 2.45.

Turning to YVQEKRDILKRRQQLEEELLRAKI, the protein stability index worked out at 1.99.

As to YVQEGRDGLKRRQQLEEELLRAKI, the protein stability index was 1.91.

Take YVQEARDGLKRRQQLEEELLRAKI: the protein stability index amounted to 1.96.

Consider YVQELRDGLKRRQQLEEELLRAKI, for which the protein stability index came out at 1.96.

As for YVQESRDGLKRRQQLEEELLRAKI, the protein stability index came to 2.56.

On to YVQENRDGLKRRQQLEEELLRAKI, for which the protein stability index worked out at 2.19.

As to YVQEERDGLKRRQQLEEELLRAKI, the protein stability index was found to be 3.57.

In the case of YVQEDRDGLKRRQQLEEELLRAKI, the protein stability index came to 3.46.

Regarding YVQEMRDGLKRRQQLEEELLRAKI, the protein stability index was found to be 2.25.

On to YVQEPRDGLKRRQQLEEELLRAKI, for which the protein stability index came to 2.05.

For the variant YVQETRDGLKRRQQLEEELLRAKI, the protein stability index was 1.74.

For the variant YVQEWRDGLKRRQQLEEELLRAKI, the protein stability index was determined as 2.11.

On to YVQEIRDGLKRRQQLEEELLRAKI, for which the protein stability index was 2.77.

In the case of YVQERRDGLKRRQQLEEELLRAKI, the protein stability index is 1.86.

On to YVQEQRDGLKRRQQLEEELLRAKI, for which the protein stability index worked out at 2.48.

With YVQEHRDGLKRRQQLEEELLRAKI, the protein stability index was 2.26.

As to YVQEVRDGLKRRQQLEEELLRAKI, the protein stability index is 2.1.

Consider YVQEFRDGLKRRQQLEEELLRAKI, for which the protein stability index worked out at 2.49.

For the variant YVQEYRDGLKRRQQLEEELLRAKI, the protein stability index stood at 2.4.

Consider YVQECRDGLKRRQQLEEELLRAKI, for which the protein stability index was 2.16.

Consider YVQEKRDGFKRRQQLEEELLRAKI, for which the protein stability index amounted to 2.02.

Consider YVQEKRDGMKRRQQLEEELLRAKI, for which the protein stability index worked out at 2.02.

Take YVQEKRDGIKRRQQLEEELLRAKI: the protein stability index worked out at 2.25.

Take YVQEKRDGCKRRQQLEEELLRAKI: the protein stability index stood at 2.06.

Take YVQEKRDGAKRRQQLEEELLRAKI: the protein stability index was found to be 2.21.

As to YVQEKRDGEKRRQQLEEELLRAKI, the protein stability index stood at 2.85.

For the variant YVQEKRDGDKRRQQLEEELLRAKI, the protein stability index amounted to 2.92.

Take YVQEKRDGKKRRQQLEEELLRAKI: the protein stability index came to 1.98.

For YVQEKRDGGKRRQQLEEELLRAKI, the protein stability index worked out at 2.14.

For the variant YVQEKRDGHKRRQQLEEELLRAKI, the protein stability index worked out at 2.1.

The values above are taken from the supplement of paper PMC10567573.
